Test results taken from article PMC12298772.
Where “and” joins values, the source holds several entries; their conditions need not be identical. Equal entries are not always repeated.

Key:
Assay in all cases: Number and Brightness (N&B) fluorescence fluctuation microscopy
[1] = molecular target: PUUV YFP-NP (Puumala orthohantavirus nucleoprotein labelled with yellow fluorescent protein) (Puumala orthohantavirus (PUUV), strain Sotkamo/V-2969/81) (UniProt P27313)
[2] = molecular target: PUUV SP-mCh2-Gn (Puumala orthohantavirus glycoprotein Gn labelled with mCherry2) (Puumala orthohantavirus (PUUV), strain Sotkamo/V-2969/81)
[3] = molecular target: PUUV SP-mCh2-Gc (Puumala orthohantavirus glycoprotein Gc labelled with mCherry2) (Puumala orthohantavirus (PUUV), strain Sotkamo/V-2969/81)

PUUV YFP-NP (Puumala orthohantavirus nucleoprotein labelled with yellow fluorescent protein) (from UniProt P27313 1-433) (natural protein)
stoichiometry N [1]: < 10 and 4 and 8

PUUV SP-mCh2-Gn (Puumala orthohantavirus glycoprotein Gn labelled with mCherry2) (natural protein)
stoichiometry N [2]: < 4

PUUV SP-mCh2-Gc (Puumala orthohantavirus glycoprotein Gc labelled with mCherry2) (natural protein)
stoichiometry N [3]: < 8
